Data on 3 molecules can be found in publication PMC7586803, “Click‐Chemistry (CuAAC) Trimerization of an αvβ6 Integrin Targeting Ga‐68‐Peptide: Enhanced Contrast for in‐Vivo PET Imaging of Human Lung Adenocarcinoma Xenografts” (Chembiochem, 2020).

Where two headings read alike, the source gives them in different places.

What is called logD is lipophilicity at a set pH, counting ionised and neutral species. High values mean a more lipophilic compound, low ones a more hydrophilic compound. A word on the tissue uptake: it is the percentage of the injected dose found per gram of tissue. As usually defined, the IC50 is the point on the concentration scale where inhibition reaches its midpoint.

One series in a line: physchem. The conditions noted are these: pH 7.4. Format: physicochemical. How it is done:
To determine the n‐octanol/PBS distribution coefficients (log D 7.4), 650 μL octan‐1‐ol and 650 μL phosphate‐buffered saline (PBS, pH 7.4) were combined in a 1.5 mL Eppendorf tube. Approximately 0.5 MBq of the radiolabeled compound was added and vortexed for 2 min at 2850 rpm using a Vortex Genie2 (Scientific Industries). The samples were centrifuged (11 500 g, 10 min), after which 100 μL of the organic phase and 10 μL of the aqueous phase were taken out and the activities of the aliquots were quantified in a γ‐counter.

A further series is described as follows: in vivo. The note with it: female, CB17 SCID, mouse, iv, 120 pmol, total radioactivity. The protocol: (§1) Mice were used for biodistribution or PET when tumors had grown to a diameter of 8–10 mm (4–5 weeks after inoculation). β6 Integrin immunohistochemistry (IHC) was performed as described before.37
(§2) For biodistribution studies, the mice were administered approximately 120 pmol (3–8 MBq, depending on radiolabeling yield and decay) of the radiopharmaceuticals into the tail vein and allowed to wake up with access to food and water. […] Animals were sacrificed 90 min after injection, blood was immediately taken from the heart with a syringe, and the organs of interest (heart, lung, liver, spleen, pancreas, stomach (empty), small intestine (empty), large intestine (empty), kidneys, adrenals, muscle, tongue, tumor, tail) were dissected. The activity in weighed tissue samples was quantified by using a γ‐counter. Injected dose per gram tissue (%ID/g) was calculated from the organ weights and counted activities.

Series [1] addresses T1, αvβ8 integrin (Homo sapiens, UniProt P06756+P26012). In words: Solid-phase binding assay (ELISA on immobilized integrins), αvβ8. The conditions noted are these: LAP(TGF-β)-coated plates, non-radioactive 69/71Ga complex, determined in duplicate, referenced to internal standard […], read-out: IC50 (95 % confidence interval) αvβ8. The protocol:
(§3) After washing the plates with PBS‐T buffer (phosphate‐buffered saline/Tween20), free binding sites were blocked by incubation with TS‐B buffer (Tris‐saline/BSA). […] Surface‐bound integrin was detected by subsequent incubation with a specific primary antibody and a secondary peroxidase‐labeled antibody (anti‐mouse IgG‐POD, Sigma–Aldrich). After addition of the dye SeramunBlau (Seramun Diagnostic, Heidesee, Germany) and quenching of the reaction by addition of 3 M H2SO4, the absorbance at λ=450 nm was measured with a microplate reader (Tecan Genius, Männedorf, Switzerland). The IC50 value for each compound was determined in duplicate and the inhibition curves were analyzed by using OriginPro 9.0 software.
A general note: In an ELISA, binding on a coated surface is turned into a signal by an enzyme label.

Series [2] deals with T2, αvβ6 integrin (Homo sapiens, UniProt P06756+P18564). In words: Solid-phase binding assay (ELISA on immobilized integrins), αvβ6. How it is done: as §3
Series [3] relates to H2009 xenografted SCID mice. Nature of the series: in vivo. The conditions noted are these: mouse. How it is done: as §1, §2
Series [4] deals with T2, αvβ6 integrin. The conditions noted are these: activity of the internal standard to which measured IC50 values were referenced; cited from earlier work. From the text:
(§4) Table 1 Integrin affinities (expressed as 50 % inhibition concentrations, IC50), IC50‐based selectivities, and octanol/PBS distribution coefficients (log D 7.4).

For series [5], the target named is T1, αvβ8 integrin. The note with it: activity of the internal standard to which measured IC50 values were referenced; cited from earlier work.
Description: as §4

Where [6] appears, read: %ID/g Tumor H2009 (tumor uptake).
Setting [7] is: tumor/organ ratio Heart (myocard).
[8] abbreviates: tumor/organ ratio Large intestine (empty).
Where [9] appears, read: tumor/organ ratio Small intestine (empty).
[10] abbreviates: tumor/organ ratio Stomach (empty).

T2 sequence (P06756 31-992 limits assumed): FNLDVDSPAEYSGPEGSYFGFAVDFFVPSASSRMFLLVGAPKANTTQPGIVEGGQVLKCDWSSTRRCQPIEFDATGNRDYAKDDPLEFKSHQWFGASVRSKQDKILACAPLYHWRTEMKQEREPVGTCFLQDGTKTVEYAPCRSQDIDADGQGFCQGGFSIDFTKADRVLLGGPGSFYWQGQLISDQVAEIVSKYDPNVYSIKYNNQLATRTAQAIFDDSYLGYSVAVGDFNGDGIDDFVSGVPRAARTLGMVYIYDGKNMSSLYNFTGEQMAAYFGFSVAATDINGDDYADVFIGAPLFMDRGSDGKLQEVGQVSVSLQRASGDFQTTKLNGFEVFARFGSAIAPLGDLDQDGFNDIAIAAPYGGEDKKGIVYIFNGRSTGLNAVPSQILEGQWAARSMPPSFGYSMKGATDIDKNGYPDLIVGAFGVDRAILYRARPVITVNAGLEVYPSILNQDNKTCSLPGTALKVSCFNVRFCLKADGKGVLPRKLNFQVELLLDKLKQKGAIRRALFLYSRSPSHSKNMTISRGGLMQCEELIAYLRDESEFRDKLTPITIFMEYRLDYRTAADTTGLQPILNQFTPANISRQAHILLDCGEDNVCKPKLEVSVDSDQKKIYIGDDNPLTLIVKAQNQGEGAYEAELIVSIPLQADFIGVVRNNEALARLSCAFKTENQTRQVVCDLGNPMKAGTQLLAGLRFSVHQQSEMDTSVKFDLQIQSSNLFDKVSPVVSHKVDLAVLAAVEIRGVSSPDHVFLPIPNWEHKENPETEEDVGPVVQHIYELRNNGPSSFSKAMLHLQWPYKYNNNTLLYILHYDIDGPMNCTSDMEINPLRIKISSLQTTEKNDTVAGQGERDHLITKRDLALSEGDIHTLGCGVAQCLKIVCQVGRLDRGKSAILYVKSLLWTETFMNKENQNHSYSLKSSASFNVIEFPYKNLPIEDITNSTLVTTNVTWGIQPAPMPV
T2 sequence (P18564 22-707 limits assumed): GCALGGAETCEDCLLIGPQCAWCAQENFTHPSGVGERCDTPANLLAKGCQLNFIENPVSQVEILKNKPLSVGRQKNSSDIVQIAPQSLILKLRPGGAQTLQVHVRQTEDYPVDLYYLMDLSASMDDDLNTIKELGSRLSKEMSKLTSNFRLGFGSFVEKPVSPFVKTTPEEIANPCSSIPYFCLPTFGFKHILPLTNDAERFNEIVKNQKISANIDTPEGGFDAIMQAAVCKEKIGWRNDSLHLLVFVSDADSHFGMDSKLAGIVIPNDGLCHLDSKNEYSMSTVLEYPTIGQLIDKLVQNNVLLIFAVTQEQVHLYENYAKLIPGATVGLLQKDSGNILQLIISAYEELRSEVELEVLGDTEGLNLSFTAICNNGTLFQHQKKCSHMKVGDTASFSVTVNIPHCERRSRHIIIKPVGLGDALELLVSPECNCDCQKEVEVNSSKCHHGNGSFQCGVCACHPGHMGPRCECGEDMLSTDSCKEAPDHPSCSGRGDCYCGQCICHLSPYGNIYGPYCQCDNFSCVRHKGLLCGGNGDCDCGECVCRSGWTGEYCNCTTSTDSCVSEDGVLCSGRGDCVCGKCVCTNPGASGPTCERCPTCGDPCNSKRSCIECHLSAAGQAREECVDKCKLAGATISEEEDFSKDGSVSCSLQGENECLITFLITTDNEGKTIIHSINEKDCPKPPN
T1 sequence (P06756 31-992 limits assumed): as the sequence (P06756 31-992 limits assumed) above
T1 sequence (P26012 43-684 limits assumed): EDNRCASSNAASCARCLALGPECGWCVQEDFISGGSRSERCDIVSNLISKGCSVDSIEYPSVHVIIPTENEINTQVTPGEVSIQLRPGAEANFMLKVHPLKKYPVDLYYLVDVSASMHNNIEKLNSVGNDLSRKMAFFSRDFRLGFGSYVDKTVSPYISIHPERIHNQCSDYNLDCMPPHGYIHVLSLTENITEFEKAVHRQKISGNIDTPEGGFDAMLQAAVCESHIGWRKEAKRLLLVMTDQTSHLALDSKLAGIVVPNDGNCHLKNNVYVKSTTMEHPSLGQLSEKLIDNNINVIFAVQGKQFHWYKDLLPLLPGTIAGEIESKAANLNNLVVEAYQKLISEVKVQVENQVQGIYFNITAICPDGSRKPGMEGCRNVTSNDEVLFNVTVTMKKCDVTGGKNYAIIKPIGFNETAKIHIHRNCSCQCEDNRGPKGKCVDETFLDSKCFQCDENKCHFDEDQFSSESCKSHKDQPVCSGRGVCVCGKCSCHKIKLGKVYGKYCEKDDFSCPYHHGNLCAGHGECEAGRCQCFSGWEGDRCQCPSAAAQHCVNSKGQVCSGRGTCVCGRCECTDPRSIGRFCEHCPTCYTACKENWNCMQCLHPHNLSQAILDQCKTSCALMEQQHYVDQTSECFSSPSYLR

Molecule `N=C(N)NCCC[C@@H]1NC(=O)CC[C@@H](C(=O)NCCCC[C@H](NC(=O)c2ccc(NC(=O)CN3CCN(CC(=O)O)CCN(CC(=O)O)CC3)cc2)C(N)=O)NC(=O)[C@H](C2CCCCC2)NC(=O)[C@H](CC(=O)O)NC(=O)CNC1=O` [^68Ga‐NOTA‐SDM17, metal not drawn] returned a logD in “physchem” of -3.91 ± 0.07. Further, the tissue uptake at 1.5 h was found to be 0.28 ± 0.09 %ID/g in the series “in vivo” (%ID/g Adrenals); 0.64 ± 0.05 %ID/g in the series “in vivo” (%ID/g Blood); 0.2 ± 0.03 %ID/g in the series “in vivo” (%ID/g Heart (myocard)); 3.74 ± 0.73 %ID/g in the series “in vivo” (%ID/g Kidneys); 0.22 ± 0.03 %ID/g in the series “in vivo” (%ID/g Large intestine (empty)); 0.33 ± 0.04 %ID/g in the series “in vivo” (%ID/g Liver). For the same molecule, the tissue uptake at 1.5 h in the series “in vivo” (%ID/g Lung) was determined as 0.47 ± 0.03 %ID/g; in “in vivo” (%ID/g Muscle) it was 0.07 ± 0.01 %ID/g; in the series “in vivo” (%ID/g Pancreas), 0.15 ± 0.02 %ID/g; in the series “in vivo” (%ID/g Small intestine (empty)), 0.22 ± 0.01 %ID/g; in “in vivo” (%ID/g Spleen), 0.32 ± 0.06 %ID/g; in “in vivo” (%ID/g Stomach (empty)), 0.34 ± 0.06 %ID/g. Also, the tissue uptake at 1.5 h was 0.28 ± 0.03 %ID/g in the series “in vivo” (%ID/g Tongue) and 0.66 ± 0.03 %ID/g in “in vivo” (setting [6]). The tissue to tissue ratio at 1.5 h was found to be 2.5 ± 0.7 in “in vivo” (tumor/organ ratio Adrenals); 1 ± 0.1 in the series “in vivo” (tumor/organ ratio Blood); 3.3 ± 0.6 in “in vivo” (setting [7]); 0.2 in “in vivo” (tumor/organ ratio Kidneys); 3.1 ± 0.4 in the series “in vivo” (setting [8]); 2 ± 0.3 in the series “in vivo” (tumor/organ ratio Liver). The tissue to tissue ratio at 1.5 h in the series “in vivo” (tumor/organ ratio Lung) was 1.4 ± 0.1; in the series “in vivo” (tumor/organ ratio Muscle), 9.7 ± 0.7; in the series “in vivo” (tumor/organ ratio Pancreas) it was 4.4 ± 0.8; in “in vivo” (setting [9]), 3 ± 0.1; in the series “in vivo” (tumor/organ ratio Spleen), 2.1 ± 0.4; in “in vivo” (setting [10]), 2 ± 0.4. Further, the tissue to tissue ratio at 1.5 h in the series “in vivo” (tumor/organ ratio Tongue) was found to be 2.4 ± 0.3.

On to `N=C(N)NCCC[C@@H]1NC(=O)CC[C@@H](C(=O)NCCCC[C@H](NC(=O)CCc2cn(CCCNC(=O)CCP(=O)(O)CN3CCN(CP(=O)(O)CCC(=O)NCCCn4cc(CCC(=O)N[C@@H](CCCCNC(=O)[C@@H]5CCC(=O)N[C@@H](CCCNC(=N)N)C(=O)NCC(=O)N[C@@H](CC(=O)O)C(=O)N[C@@H](C6CCCCC6)C(=O)N5)C(N)=O)nn4)CCN(CP(=O)(O)CCC(=O)NCCCn4cc(CCC(=O)N[C@@H](CCCCNC(=O)[C@@H]5CCC(=O)N[C@@H](CCCNC(=N)N)C(=O)NCC(=O)N[C@@H](CC(=O)O)C(=O)N[C@@H](C6CCCCC6)C(=O)N5)C(N)=O)nn4)CC3)nn2)C(N)=O)NC(=O)[C@H](C2CCCCC2)NC(=O)[C@H](CC(=O)O)NC(=O)CNC1=O` [^68Ga‐TRAP(SDM17)3, metal not drawn], for which the IC50 on αvβ8 integrin [1] amounted to 172 nM; at αvβ6 integrin [2] (ELISA, LAP(TGF-β)-coated plates, non-radioactive 69/71Ga complex, determined in duplicate, referenced to internal standard […], read-out: IC50 (95 % confidence interval) αvβ6), 0.26 nM. Also, the “Selectivity for αvβ6 over αvβ8” value at αvβ6 integrin [2] (IC50-based selectivity factor (IC50 αvβ8 / IC50 αvβ6)) turned out to be 662. The same molecule showed a logD in “physchem” of -4.08 ± 0.07. The “higher tumor uptake than monomer” value in series [3] is on record as “threefold”. The tissue uptake at 1.5 h in “in vivo” (%ID/g Adrenals) worked out at 0.16 ± 0.02 %ID/g; in “in vivo” (%ID/g Blood) it was 0.19 ± 0.05 %ID/g; in “in vivo” (%ID/g Heart (myocard)), 0.1 ± 0.03 %ID/g; in “in vivo” (%ID/g Kidneys), 21.8 ± 2.7 %ID/g; in “in vivo” (%ID/g Large intestine (empty)), 0.41 ± 0.09 %ID/g; in the series “in vivo” (%ID/g Liver), 0.34 ± 0.21 %ID/g. The tissue uptake at 1.5 h in “in vivo” (%ID/g Lung) worked out at 0.71 ± 0.15 %ID/g; in the series “in vivo” (%ID/g Muscle), 0.1 ± 0.02 %ID/g; in “in vivo” (%ID/g Pancreas), 0.07 ± 0.01 %ID/g; in “in vivo” (%ID/g Small intestine (empty)), 0.31 ± 0.08 %ID/g; in the series “in vivo” (%ID/g Spleen) it was 0.58 ± 0.11 %ID/g; in “in vivo” (%ID/g Stomach (empty)), 1.04 ± 0.22 %ID/g. Also, the tissue uptake at 1.5 h in “in vivo” (%ID/g Tongue) was 0.35 ± 0.09 %ID/g; in the series “in vivo” (setting [6]) it was 2.06 ± 0.34 %ID/g. For the same molecule, the tissue to tissue ratio at 1.5 h was found to be 12.5 ± 1.6 in the series “in vivo” (tumor/organ ratio Adrenals); 11.2 ± 1.9 in the series “in vivo” (tumor/organ ratio Blood); 21.7 ± 3 in “in vivo” (setting [7]); 0.1 in the series “in vivo” (tumor/organ ratio Kidneys); 5.1 ± 1.2 in “in vivo” (setting [8]); 8.7 ± 5.2 in “in vivo” (tumor/organ ratio Liver). For the same molecule, the tissue to tissue ratio at 1.5 h in “in vivo” (tumor/organ ratio Lung) was found to be 3 ± 0.4; in the series “in vivo” (tumor/organ ratio Muscle), 22.3 ± 6.6; in “in vivo” (tumor/organ ratio Pancreas), 29.7 ± 3; in “in vivo” (setting [9]), 7 ± 1.7; in “in vivo” (tumor/organ ratio Spleen), 3.6 ± 0.6; in the series “in vivo” (setting [10]), 2 ± 0.4. In addition, in the series “in vivo” (tumor/organ ratio Tongue), the tissue to tissue ratio at 1.5 h worked out at 6.2 ± 1.8.

With RTDLDSLRT, the results for the IC50 with αvβ6 integrin [4] and with αvβ8 integrin [5] were 33 nM and 100 nM, respectively.
